Data reported in the RNAGym collection of RNA variant scans (doi:10.1073/pnas.2313332121).
Fewer inactive variants are shown than the library holds.

B1: TPR 5TU (parent)
chain: GGAUCUUCUCGAUCUAACAAAAAAGACAAAUCUGCCACAAAGCUUGAGAGCAUCUUCGGAUGCAGAGGCGGCAGCCUUCGGUGGCGCGAUAGCGCCAACGUUCUCAACUAUGACACGCAAAACGCGUGCUCCGUUGAAUGGAGUUUAUCAUG

Variants of: B1
Assay: polymerase ribozyme fitness, log enrichment relative to wild type (log ratio); higher = more active; in vitro selection for triplet polymerase activity
Outline: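 Only genotypes with ≥10 input reads and ≥1 read per output were kept after Illumina sequencing of input and output libraries. These libraries were PCR-built, transcribed mutants of each subunit of a heterodimeric triplet polymerase ribozyme, each put through one triplicate in vitro selection round with frozen incubation at −7 °C, gel excision of extended constructs, streptavidin-bead capture and RT-PCR. Fitness is a logarithmic ratio of genotype enrichment to wild-type enrichment, from inverse-variance-weighted replicate averages, with the logarithm in base 2.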

Q: For A30U U33C C36G U56A C85U C114G, which “polymerase ribozyme fitness (log ratio)” value is on record?
A: The value was -3.84.

Q: For C32G A60G U144G, which “polymerase ribozyme fitness (log ratio)” value is on record?
A: Its value is ≤ -4.2.

Q: For G34A U56C G126U, which “polymerase ribozyme fitness (log ratio)” value is on record?
A: Its value is -1.64.

Q: With G34A U55A A91G G117U as the variant, how does the “polymerase ribozyme fitness (log ratio)” value read?
A: Its value is -4.06.

Q: With A30G A47G G71C C87G U135G as the variant, how does the “polymerase ribozyme fitness (log ratio)” value read?
A: Its value is ≤ -4.2.

Q: For U33G A47G G81A, which “polymerase ribozyme fitness (log ratio)” value is on record?
A: The value was -4.

Q: With C32A C54A U130A as the variant, how does the “polymerase ribozyme fitness (log ratio)” value read?
A: The value was ≤ -4.2.

Q: With C32G A37U U53A as the variant, how does the “polymerase ribozyme fitness (log ratio)” value read?
A: Its value is ≤ -4.2.

Q: For A30G A60C A110G A113U A150G, which “polymerase ribozyme fitness (log ratio)” value is on record?
A: Its value is ≤ -4.2.

Q: With G34A G70A A89G A122G as the variant, how does the “polymerase ribozyme fitness (log ratio)” value read?
A: The value was -4.01.

Q: With C32G U56A C57U C76A C93A C118G U135C as the variant, how does the “polymerase ribozyme fitness (log ratio)” value read?
A: Its value is ≤ -4.2.

Q: Which “polymerase ribozyme fitness (log ratio)” value does the source give for C32G G50A C63U A91G C125G A147G here?
A: The value was ≤ -4.2.

Q: For U31G A73G G84A, which “polymerase ribozyme fitness (log ratio)” value is on record?
A: The value was 0.0111.

Q: With A30U A39U G62A G70A A89C C129A A142C as the variant, how does the “polymerase ribozyme fitness (log ratio)” value read?
A: The value was ≤ -4.2.

Q: With A30U U56A C93U G141A as the variant, how does the “polymerase ribozyme fitness (log ratio)” value read?
A: Its value is ≤ -4.2.

Q: For C32A A47C A122G A147C, which “polymerase ribozyme fitness (log ratio)” value is on record?
A: Its value is ≤ -4.2.

Q: For U31G A49C A52G A97C A120U U135C U148G, which “polymerase ribozyme fitness (log ratio)” value is on record?
A: Its value is ≤ -4.2.

Q: For A30G C63A C99U, which “polymerase ribozyme fitness (log ratio)” value is on record?
A: Its value is ≤ -4.2.

Q: For U33A G80C C99U C131U, which “polymerase ribozyme fitness (log ratio)” value is on record?
A: The value was ≤ -4.2.

Q: For G34A A37G U61C, which “polymerase ribozyme fitness (log ratio)” value is on record?
A: The value was ≤ -4.2.

Q: For A30U A41G A142G, which “polymerase ribozyme fitness (log ratio)” value is on record?
A: The value was -3.58.

Q: Which “polymerase ribozyme fitness (log ratio)” value does the source give for C32U C75U G81A G84C A121C U127C A138G G140A here?
A: The value was ≤ -4.2.

Q: Which “polymerase ribozyme fitness (log ratio)” value does the source give for G34A C36U A60C G71A G84A here?
A: The value was ≤ -4.2.

Q: For U31A U53A G83U G100C G133A, which “polymerase ribozyme fitness (log ratio)” value is on record?
A: Its value is ≤ -4.2.

Q: Which “polymerase ribozyme fitness (log ratio)” value does the source give for C32A A37G U61G G94U G124U here?
A: The value was ≤ -4.2.

Q: Which “polymerase ribozyme fitness (log ratio)” value does the source give for C32G A64U C105U G152U here?
A: The value was ≤ -4.2.

Q: Which “polymerase ribozyme fitness (log ratio)” value does the source give for U33A G84A here?
A: The value was -3.81.

Q: Which “polymerase ribozyme fitness (log ratio)” value does the source give for U33C U82A here?
A: Its value is -2.77.

Q: Which “polymerase ribozyme fitness (log ratio)” value does the source give for C35A G83C C114A here?
A: Its value is ≤ -4.2.

Q: For G34U A41U G84A U145C, which “polymerase ribozyme fitness (log ratio)” value is on record?
A: Its value is -3.69.

Q: For G34U G83U A91C C99U A107U, which “polymerase ribozyme fitness (log ratio)” value is on record?
A: The value was ≤ -4.2.

Q: With U33G C36A G50A A52C G84A A97C A138C as the variant, how does the “polymerase ribozyme fitness (log ratio)” value read?
A: The value was -3.92.

Q: With U33G C76U A97U A119C as the variant, how does the “polymerase ribozyme fitness (log ratio)” value read?
A: The value was ≤ -4.2.

Q: For U33C C87A, which “polymerase ribozyme fitness (log ratio)” value is on record?
A: Its value is -3.95.

Q: Which “polymerase ribozyme fitness (log ratio)” value does the source give for U31G G50U U82C A147U here?
A: The value was -0.72.

Q: Which “polymerase ribozyme fitness (log ratio)” value does the source give for A30G G83U G117A here?
A: Its value is ≤ -4.2.

Q: With C32G C76A C99A as the variant, how does the “polymerase ribozyme fitness (log ratio)” value read?
A: The value was -4.15.

Q: Which “polymerase ribozyme fitness (log ratio)” value does the source give for U31A G46A U82C A89G U145C here?
A: Its value is -3.66.

Q: Which “polymerase ribozyme fitness (log ratio)” value does the source give for C32U U44A A91G C118A here?
A: Its value is ≤ -4.2.

Q: Which “polymerase ribozyme fitness (log ratio)” value does the source give for C32A G86C here?
A: The value was ≤ -4.2.

Q: With U31A G100U as the variant, how does the “polymerase ribozyme fitness (log ratio)” value read?
A: Its value is ≤ -4.2.

Q: With C32G A91G as the variant, how does the “polymerase ribozyme fitness (log ratio)” value read?
A: Its value is ≤ -4.2.

Q: For C32G G88C, which “polymerase ribozyme fitness (log ratio)” value is on record?
A: The value was -3.96.

Q: Which “polymerase ribozyme fitness (log ratio)” value does the source give for U33G A41U C51A G67C C72U here?
A: Its value is -3.95.

Q: With C32G C72U as the variant, how does the “polymerase ribozyme fitness (log ratio)” value read?
A: Its value is -4.2.

Q: For C32U A52U G84U, which “polymerase ribozyme fitness (log ratio)” value is on record?
A: The value was ≤ -4.2.

Q: Which “polymerase ribozyme fitness (log ratio)” value does the source give for C32A A52G U53A G65C C99U G143U here?
A: The value was ≤ -4.2.

Q: For U31G A40U G42A C85A U148C, which “polymerase ribozyme fitness (log ratio)” value is on record?
A: The value was ≤ -4.2.

Q: For A30U C38U G50C U56G G83U A137C, which “polymerase ribozyme fitness (log ratio)” value is on record?
A: Its value is ≤ -4.2.

Q: With C32A C69A U145C as the variant, how does the “polymerase ribozyme fitness (log ratio)” value read?
A: The value was -3.25.

Q: With U31C G92A C118G as the variant, how does the “polymerase ribozyme fitness (log ratio)” value read?
A: Its value is -2.66.

Q: With U33A C63U C93A A97G G126C as the variant, how does the “polymerase ribozyme fitness (log ratio)” value read?
A: Its value is ≤ -4.2.

Q: For A30G A106U A115U C116A A120G, which “polymerase ribozyme fitness (log ratio)” value is on record?
A: Its value is ≤ -4.2.

Q: Which “polymerase ribozyme fitness (log ratio)” value does the source give for A30G C149G here?
A: The value was ≤ -4.2.

Q: For U31C A49C C93G U135G G143A, which “polymerase ribozyme fitness (log ratio)” value is on record?
A: Its value is ≤ -4.2.

Q: With U31A A49C U82G G84C U127G C131U U151A as the variant, how does the “polymerase ribozyme fitness (log ratio)” value read?
A: The value was ≤ -4.2.

Q: With C32G U56A as the variant, how does the “polymerase ribozyme fitness (log ratio)” value read?
A: The value was -4.1.

Q: With C32U C38U G58C as the variant, how does the “polymerase ribozyme fitness (log ratio)” value read?
A: Its value is -2.43.

Q: For U33G G48A U61A A121U A142G, which “polymerase ribozyme fitness (log ratio)” value is on record?
A: Its value is -3.95.

Q: Which “polymerase ribozyme fitness (log ratio)” value does the source give for A30G G71C U78A C95G A115C here?
A: Its value is ≤ -4.2.

Q: With U31G C95U G126C as the variant, how does the “polymerase ribozyme fitness (log ratio)” value read?
A: The value was 0.488.

Q: For U31A C63U G84A C103A G112A A137U G152U, which “polymerase ribozyme fitness (log ratio)” value is on record?
A: Its value is ≤ -4.2.

Q: For G34U C96G U144C, which “polymerase ribozyme fitness (log ratio)” value is on record?
A: Its value is ≤ -4.2.

Q: Which “polymerase ribozyme fitness (log ratio)” value does the source give for U31A C75G C76G G83U C95U A115U here?
A: The value was ≤ -4.2.

Q: Which “polymerase ribozyme fitness (log ratio)” value does the source give for U31C C76G U109G A119G G141C here?
A: The value was ≤ -4.2.

Q: Which “polymerase ribozyme fitness (log ratio)” value does the source give for A30G A41G A52G here?
A: The value was -2.03.

Q: With U33C U53G U77A G143C as the variant, how does the “polymerase ribozyme fitness (log ratio)” value read?
A: The value was ≤ -4.2.

Q: Which “polymerase ribozyme fitness (log ratio)” value does the source give for U33G G94A here?
A: Its value is -3.04.

Q: For U31A U78A C123G U135G G140U, which “polymerase ribozyme fitness (log ratio)” value is on record?
A: Its value is ≤ -4.2.

Q: With G34A G94U U101A as the variant, how does the “polymerase ribozyme fitness (log ratio)” value read?
A: Its value is ≤ -4.2.

Q: For U33C A91U, which “polymerase ribozyme fitness (log ratio)” value is on record?
A: The value was -3.67.

Q: For A30U G94A G141A, which “polymerase ribozyme fitness (log ratio)” value is on record?
A: The value was ≤ -4.2.

Q: For U33C A37C A64U, which “polymerase ribozyme fitness (log ratio)” value is on record?
A: Its value is ≤ -4.2.

Q: With C32G A73U A97U A120G G126A as the variant, how does the “polymerase ribozyme fitness (log ratio)” value read?
A: Its value is ≤ -4.2.

Q: With U31C G48A C79A C105U A120G G141U A147C as the variant, how does the “polymerase ribozyme fitness (log ratio)” value read?
A: Its value is ≤ -4.2.

Q: With U31G G50C G58U G88U as the variant, how does the “polymerase ribozyme fitness (log ratio)” value read?
A: The value was ≤ -4.2.

Q: Which “polymerase ribozyme fitness (log ratio)” value does the source give for C32U G68A here?
A: Its value is -3.89.

Q: Which “polymerase ribozyme fitness (log ratio)” value does the source give for C32A A37G C54A G86C C99A A113G C125U U135A here?
A: Its value is ≤ -4.2.

Q: With C32U A40C as the variant, how does the “polymerase ribozyme fitness (log ratio)” value read?
A: The value was -4.1.

Q: With C35A G94C G128A as the variant, how does the “polymerase ribozyme fitness (log ratio)” value read?
A: The value was ≤ -4.2.

Q: Which “polymerase ribozyme fitness (log ratio)” value does the source give for U31G C93U C99U C116A A119G A142C here?
A: Its value is ≤ -4.2.

Q: For U31G G83U, which “polymerase ribozyme fitness (log ratio)” value is on record?
A: The value was -0.727.

Q: For U31G G84U, which “polymerase ribozyme fitness (log ratio)” value is on record?
A: Its value is -0.431.
